Data published in patent US20260116991A1 (HAINAN SIMCERE ZAIMING PHARMACEUTICAL, published 2026).
Positions count from the first letter of the chain named. Where two headings read alike, the source gives them in different places. Values belong to the binder of their own block, whether it stands above or below them.

Key:
[1] = biological target: T1, monkey GPC3 on HEK293T-monkey GPC3 cells (monkey); test: FACS on HEK293T-monkey GPC3 cells
T1 construct: whole, on cells

human GPC3-His protein [2] = biological target: T2, human GPC3-His protein (human, UniProt P51654 25-559, limits assumed); test: SPR, antibody captured on Protein A chip, human GPC3-His injected, 1:1 Langmuir model;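 further: flow cell at 25 °C, antigen injected for 240 s at five twofold dilutions starting at 200 nM, dissociation followed up to 600 s, double-referenced sensorgrams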
T2 construct: also called human GPC3 protein; not shown: His tag

monkey GPC3-His protein [3] = biological target: T3, monkey GPC3-His protein (monkey); test: ELISA, monkey GPC3-His coated;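 further: Plate-coated antigen at 1 µg/mL, antibody binding 2 h at 37 °C, detected with HRP-labeled secondary antibody and TMB, absorbance at 450 nm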
T3 construct: Bought recombinant protein; also called monkey GPC3 protein

[4] = biological target: T4, monkey GPC3 on HEK293T-monkey GPC3 cells (monkey); test: FACS on HEK293T-monkey GPC3 cells; remark: listed apart in the source
T4 construct: whole, on cells

human GPC3-His protein [5] = biological target: T5, human GPC3-His protein (human, UniProt P51654 25-559); test: SPR, antibody captured on Protein A chip, human GPC3-His analyte;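 further: measured at 25 °C flow cell, human GPC3-His injected at five concentrations up to 200 nM, 240 s association, up to 600 s dissociation, double-referenced, fitted to Langmuir 1:1 model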
T5 construct: also called human GPC3 protein; not shown: His tag

monkey GPC3-His protein [6] = biological target: T3, monkey GPC3-His protein; test: SPR, antibody captured on Protein A chip, monkey GPC3-His analyte;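 further: run at 25 °C with 240 s association and up to 600 s dissociation, double-referenced, kinetics fitted to a 1:1 Langmuir binding model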

B2: hAb003LH1L1 (antibody, human IgG1, V domains shown)
VH: EVQLVQSGAEVKKPGSSVKVSCKASGYTFSDYEMHWVRQAPGQGLEWMGTIDPETGNTAYTQKFMDRVTITADKSTSTAYMELSSLRSEDTAVYYCTRGYSFTYWGQGTLVTVSS
VL: DIVMTQTPLSLPVTPGEPASISCRSSQNIVHSNGNTYLQWYLQKPGQSPQLLIFKVSNRFSGVPDRFSGSGSGTDFTLKISRVEAEDVGVYYCFQGSHVPFTFGQGTKLEIK
notes: Humanized F2.154.1
EC50 [1]: 1.56 nM | Max MFI [1]: 28200 MFI | Kd (human GPC3-His protein [2]): 1.93 nM | koff (human GPC3-His protein [2]): 0.000453 s⁻¹ | kon (human GPC3-His protein [2]): 234000 M⁻¹ s⁻¹

B3: hAb003LH1L1b (antibody, human IgG1, V domains shown)
VH: B2 VH
VL: B2 VL with G34R
notes: Humanized F2.154.1
EC50 [1]: 1.46 nM | Max MFI [1]: 28400 MFI | Kd (human GPC3-His protein [2]): 1.68 nM | koff (human GPC3-His protein [2]): 0.000415 s⁻¹ | kon (human GPC3-His protein [2]): 246000 M⁻¹ s⁻¹

B7: hAb005LH1L1b (antibody, human IgG1, V domains shown)
VH: EVQLVQSGAEVKKPGASVKVSCKASGYTFTDYEMHWVRQAPGQGLEWMGAIDPETGNTAYIQKFKGRVTMTTDKSTSTAYMELRSLRSDDTAVYYCTRFYSYSHWGQGTTVTVSS
VL: DIVMTQTPLSLPVTPGEPASISCRSSQSLVHSNRNTYLHWYLQKPGQSPQLLIYKVSNRFSGVPDRFSGSGSGTDFTLKISRVEAEDVGVYYCSQNTHVPPTFGGGTKVEIK
notes: Humanized F3.54.12
EC50 [1]: 2.62 nM | Max MFI [1]: 24300 MFI | Kd (human GPC3-His protein [2]): 8.49 nM | koff (human GPC3-His protein [2]): 0.00231 s⁻¹ | kon (human GPC3-His protein [2]): 272000 M⁻¹ s⁻¹

B8: F4.13.7 (antibody, human IgG1, kappa, V domains shown)
VH: QVQLQQPGAELVKPGASVKLSCKASGYTFTNNWVHWVKQRPGQGLEWTGMIHPDSGSTIYNEKFQSKATLTVDKSSSTAYMQLSSLTSEDSAVYYCARGYYDSSSYYAMDYWGQGTSVTVSS
VL: NIQMTQTTSSLSASLGDRVTISCSASQGIFNYLNWYQQKPDGTVKLLIYYTSSLHSGVPSRFSGSGSGTDYSLTISNLEPEDIATYYCQQYSKLPWTFGGGTKLEIKR
notes: Human-murine chimeric antibody
OD450 at 0.0001 nM (monkey GPC3-His protein [3]): 0.05 OD450 | OD450 at 0.001 nM (monkey GPC3-His protein [3]): 0.08 OD450 | OD450 at 0.01 nM (monkey GPC3-His protein [3]): 0.36 OD450 | OD450 at 0.1 nM (monkey GPC3-His protein [3]): 1.55 OD450 | OD450 at 1 nM (monkey GPC3-His protein [3]): 2.34 OD450 | OD450 at 10 nM (monkey GPC3-His protein [3]): 2.4 OD450 | OD450 at 100 nM (monkey GPC3-His protein [3]): 2.44 OD450 | EC50 [4]: 1.1 nM | Max MFI [4]: 44100 MFI | Kd (human GPC3-His protein [5]): 32.3 nM | koff (human GPC3-His protein [5]): 0.00156 s⁻¹ | kon (human GPC3-His protein [5]): 48400 M⁻¹ s⁻¹ | Kd (monkey GPC3-His protein [6]): 31.4 nM | koff (monkey GPC3-His protein [6]): 0.00264 s⁻¹ | kon (monkey GPC3-His protein [6]): 84000 M⁻¹ s⁻¹

Continued by falling EC50 [1], values first:

EC50 [1]: 1.41 nM | Max MFI [1]: 33100 MFI | Kd (human GPC3-His protein [2]): 19.2 nM | koff (human GPC3-His protein [2]): 0.0101 s⁻¹ | kon (human GPC3-His protein [2]): 526000 M⁻¹ s⁻¹
B4: hAb001H2L1b (antibody, human IgG1, V domains shown)
VH: EVQLVESGGGLVQPGGSLRLSCAASGFSFNTNAMNWVRQAPGKGLEWVGRIRSKSNNYATYYADSVKDRFTISRDDSKSSLYLQMNSLKTEDTAVYYCVRDGYYVLFAYWGQGTLVTVSS
VL: B2 VL with S25F, N28S, H31N, G34A, Q39E, Y41F, F54Y
notes: Humanized F2.169.2

EC50 [1]: 1 nM | Max MFI [1]: 34000 MFI | Kd (human GPC3-His protein [2]): 27 nM | koff (human GPC3-His protein [2]): 0.0701 s⁻¹ | kon (human GPC3-His protein [2]): 2.6e+06 M⁻¹ s⁻¹
B5: hAb001H1aL1 (antibody, human IgG1, V domains shown)
VH: B4 VH with D68G, S79N
VL: B2 VL with S25F, N28S, H31N, Q39E, Y41F, F54Y
notes: Humanized F2.169.2

EC50 [1]: 0.96 nM | Max MFI [1]: 32600 MFI | Kd (human GPC3-His protein [2]): 109 nM | koff (human GPC3-His protein [2]): 0.0167 s⁻¹ | kon (human GPC3-His protein [2]): 153000 M⁻¹ s⁻¹
B6: hAb001H1aL1b (antibody, human IgG1, V domains shown)
VH: B4 VH with D68G, S79N
VL: B2 VL with S25F, N28S, H31N, G34A, Q39E, Y41F, F54Y
notes: Humanized F2.169.2

EC50 [1]: 0.793 nM | Max MFI [1]: 31100 MFI | Kd (human GPC3-His protein [2]): 2.08 nM | koff (human GPC3-His protein [2]): 0.000501 s⁻¹ | kon (human GPC3-His protein [2]): 240000 M⁻¹ s⁻¹
B1: hAb003LH2L1b (antibody, human IgG1, V domains shown)
VH: B2 VH with T28R, S30T
VL: B2 VL with G34R
notes: Humanized F2.154.1
